Measurements as given in publication PMC12459405, “From disorder to icosahedral symmetry: How conformation-switching subunits enable RNA virus assembly” (Science Advances, 2025).

Target: the molecule itself
Assay: cryo-TEM + other: SAXS; in vitro assembly: purified CCMV capsid proteins mixed with in vitro transcribed RNA (C2, 2767 nt, or RF2, 2687 nt) and dialysed overnight against 0.1 M NaCl, 50 mM tris-HCl pH 7.5; SAXS at 25 uM protein, protein-to-RNA mass ratio 4.5; cryo-TEM at 75 uM protein, mass ratio 6.0

B1: cowpea chlorotic mottle virus (CCMV) capsid protein (natural protein)
chain: MSTVGTGKLTRAQRRAAARKNKRNTRVVQPVIVEPIASGQGKAIKAWTGYSVSKWTASCAAAEAKVTSAITISLPNELSSERNKQLKVGRVLLWLGLLPSVSGTVKSCVTETQTTAAASFQVALAVADNSKDVVAAMYPEAFKGITLEQLTADLTIYLYSSAALTEGDVIVHLEVEHVRPTFDDSFTPVY
notes: Free capsid protein stored in 0.5 M NaCl, 50 mM tris-HCl pH 7.5; also called CCMV capsid proteins; CCMV coat proteins; source: purified from CCMV virions from infected cowpea leaves (Vigna unguiculata); virions disassembled by dialysis, capsid proteins recovered by ultracentrifugation
- binding result: binds
